15 molecules from patent US20200377595A1 (Chugai, published 2020) can be followed below.

Where a chain is given by its changes, count along the chain named. Numbers in names are those of the source. Where “and” joins values, the source holds several entries; their conditions need not be identical. Identical values can stand only once.

One assay has as its target T1, human CD137 (human, UniProt Q07011 24-186).
T1 construct: soluble Biacore analyte; also called hCD137; recombinant human CD137
Kind of assay: ECL, IgG with biotinylated antigen on streptavidin plate, log axis.

In assay [1] the target is T2, biotin labeled human IgG1 Fc (human, UniProt P01857-1 104-330 = IgG part, limits assumed, biotin-labeled).
T2 construct: domain: Fc region; control antigen; also called human Fc
Description: bead ELISA, IgG. (In general: ELISA stands for enzyme-linked immunosorbent assay.)
Description: First, 20 micro g of Streptavidin-coated magnetic beads MyOne-T1 beads was washed three-times with blocking buffer including 0.5× block Ace, 0.02% Tween and 0.05% ProClin 300 and then blocked with this blocking buffer at room temperature for 60 minutes or more. […] After that each well was washed with TBST. […] The plate was incubated for one hour. […] 2 minutes later the fluorescence of each well was detected.

The target in another assay is T3, recombinant human CD3 (human).
T3 construct: also called hCD3
T3 sequence (P07766 22-126, chain 1 of 2): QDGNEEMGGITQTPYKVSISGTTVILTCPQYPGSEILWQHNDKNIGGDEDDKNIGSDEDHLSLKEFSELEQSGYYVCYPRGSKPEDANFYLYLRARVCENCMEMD
T3 sequence (P04234 22-100, chain 2 of 2, further chain): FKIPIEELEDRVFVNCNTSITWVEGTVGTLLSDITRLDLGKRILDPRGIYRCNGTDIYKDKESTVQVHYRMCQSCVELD
Kind of assay: SPR, Ab captured by anti-Fc, 37 C.

For assay [2], the target named is biotinylated CD3 epsilon epitope peptide. Description: SPR, method of Ref. Ex. 3, one-arm Ab. In general terms: Surface plasmon resonance follows binding to a sensor surface in real time, without labels.

T1 sequence (Q07011 24-186 limits assumed): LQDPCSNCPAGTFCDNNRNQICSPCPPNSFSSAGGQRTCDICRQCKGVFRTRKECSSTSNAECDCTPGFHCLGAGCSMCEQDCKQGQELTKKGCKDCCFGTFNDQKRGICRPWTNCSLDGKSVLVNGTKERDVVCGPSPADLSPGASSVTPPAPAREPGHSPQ
Description for human CD137: Antigen binding of each molecule was tested by the electrochemiluminescence method (ECL method). […] A TBST solution containing 0.5% BSA was added at 150 micro L/well to streptavidin plate (MSD K.K., L15SA-1), and the plate was incubated overnight at 4 degrees C. After removal of the blocking solution, each well was washed three times with 250 micro L of a TBST solution.
Description for recombinant human CD3: Binding affinity of trispecific antibodies to human CD3 and CD137 were assessed at 37 degrees C. using Biacore T200 instrument (GE Healthcare). Anti-human Fe antibody (GE Healthcare) was immobilized onto all flow cells of a CM4 sensor chip using amine coupling kit (GE Healthcare). Antibodies were captured onto the anti-Fc sensor surfaces, then recombinant human CD3 or CD137 was injected over the flow cell. All antibodies and analytes were prepared in ACES pH 7.4 containing 20 mM ACES, 150 mM NaCl, 0.05% Tween 20, 0.005% NaN3. Sensor surface was regenerated each cycle with 3M MgCl2.

B1: dBBDu_011 (antibody, V domains shown)
VH: QVQLVESGGGLVQPGRSLRLSCAASGFTFSNAWMHWVRQAPGKGLEWVAQIKDKSSLYNTYYAPSVKGRFTISRDDSKNSIYLQMNSLKTEDTAVYYCRYVHYGASYGFLFAGYGVDAWGQGTTVTVSS
VL: DIVMTQSPLSLPVTPGEPASISCRSSQSLVHSNRNTYLHWYQQKPGQAPRLLIYKVSNRFSGVPDRFSGSGSGTDFTLKISRVEAEDVGVYYCGQGTQVPYTFGQGTKLEIK
notes: converted to IgG with human H and L chain constant domains; also called clone 011
With B1, the binding result with human CD137 is “binds”.

B2: DADU01_3#002 (antibody, IgG1, V domains shown)
VH: QVQLVESGGGLVQPGRSLRLSCAASGFTFSNAWMHWVRQAPGKGLEWVAQIKDKQNLYNAYYAESVKGRFTISRDDSKNSIYLQMNSLKTEDTAVYYCHYVHYASASTVLPAFGVDAWGQGTTVTVSS
VL: B1 VL
notes: IgG1; also called dBBDu124
B2 displayed an RLU in assay [1] of 1920 RLU.

B3: GPC3/CD137xCD3 trispecific antibody (other)
VH 1: QVQLQQWGAGLLKPSETLSLTCAVYGGSFSGYYWSWIRQSPEKGLEWIGEINHGGYVTYNPSLESRVTISVDTSKNQFSLKLSSVTAADTAVYYCARDYGPGNYDWYFDLWGRGTLVTVSS
VL 1: EIVLTQSPATLSLSPGERATLSCRASQSVSSYLAWYQQKPGQAPRLLIYDASNRATGIPARFSGSGSGTDFTLTISSLEPEDFAVYYCQQRSNWPPALTFGGGTKVEIK
VH 2: QVQLVESGGGLVQPGRSLRLSCAASGFTFSNAWMHWVRQAPGKGLEWVAQIKDRANSYNTYYAESVKGRFTISRDDSKNSIYLQMNSLKTEDTAVYYCRYVHYTTYAGSSFSYGVDAWGQGTTVTVSS
VL 2: B1 VL with S28P
VH 3: QVQLVQSGAEVKKPGASVTVSCKASGYTFTDYEMHWIRQPPGEGLEWIGAIDGPTPDTAYSEKFKGRVTLTADKSTSTAYMELSSLTSEDTAVYYCTRFYSYTYWGQGTLVTVSS
VL 3: B1 VL with S28P
notes: mAb AB made by CrossMab and Fab-arm exchange; silent Fc (L235R, G236R, S239K, N297A); also called anti-GPC3/CD137xCD3
As usually defined, the Kd is the concentration at which binding is half-saturated. What is called koff is a measure of how fast the partners let go of each other. A word on the kon: it is a measure of how fast the partners come together. With B3, in the assay with recombinant human CD3, the dissociation constant (Kd) is 19.7 nM, the off-rate (koff) turned out to be 0.00161 s⁻¹ and the kon was determined as 81800 M⁻¹ s⁻¹.

B4: DXDU01_3#051 (antibody, IgG1, V domains shown)
VH: B2 VH with K54R, Q55G, N56Q, L57Q, E64P, T108S, A112G, F113Y
VL: B1 VL
notes: IgG1; also called dBBDu127
Molecule B4 yielded an RLU in assay [1] of 2910 RLU.

B5: DXDU01_3#094 (antibody, IgG1, V domains shown)
VH: B2 VH with Q55G, L57A, N59A, E64P, S107A, T108G, V109G, A112G
VL: B1 VL
notes: IgG1; also called dBBDu121
The molecule B5 had an RLU in assay [1] of 2370 RLU.

B6: DADU01_3#018 (antibody, IgG1, V domains shown)
VH: B2 VH with K54R, Q55A, L57S, E64P, A104S, S105A, V109L, A112S
VL: B1 VL
notes: IgG1; also called dBBDu123
For B6, the RLU in assay [1] is 1900 RLU.

B7: DADU01_3#001 (antibody, IgG1, V domains shown)
VH: QVQLVESGGGLVQPGRSLRLSCAASGFTFSIAWMHWVRQAPGKGLEWVAQIKDRVNAYEAYYAPSVKGRFTISRDDSKNSIYLQMNSLKTEDTAVYYCRYVHYASYYDLLGYGGVDAWGQGTTVTVSS
VL: B1 VL
notes: IgG1; also called dBBDu_126; dBBDu126
Molecule B7 registered an RLU in assay [1] of 1760 RLU.

B8: DXDU01_3#019 (antibody, IgG1, V domains shown)
VH: B7 VH with R54K, A57G, E59T, P64E, S105A, L109V
VL: B1 VL
notes: IgG1; also called dBBDu125
For B8, the RLU in assay [1] was 3260 RLU.

B9: CE115HA000 V11L/D72A/L78I/D101Q with GGS inserted between Kabat 99 and 100, one-arm antibody (antibody)
chain 1: QVQLVESGGGLVQPGRSLRLSCAASGFTFSNAWMHWVRQAPGKGLEWVAQIKAKSNNYATYYAESVKGRFTISRADSKNSIYLQMNSLKTEDTAVYYCRYVHYGAGGSYYGVQAWGQGTTVTVSSASTKGPSVFPLAPSSKSTSGGTAALGCLVKDYFPEPVTVSWNSGALTSGVHTFPAVLQSSGLYSLSSVVTVPSSSLGTQTYICNVNHKPSNTKVDKKVEPKSCDKTHTCPPCPAPEAAGGPSVFLFPPKPKDTLMISRTPEVTCVVVDVSHEDPEVKFNWYVDGVEVHNAKTKPREEQYASTYRVVSVLTVLHQDWLNGKEYKCKVSNKALPAPIEKTISKAKGQPREPQVYTLPPSRCELTKNQVSLSCAVKGFYPSDIAVEWESNGQPENNYKTTPPVLDSDGSFFLVSKLTVDKSRWQQGNVFSCSVMHEALHNHYTQKSLSLSPDYKDDDDK
chain 2: EPKSSDKTHTCPPCPAPELLGGPSVFLFPPKPKDTLMISRTPEVTCVVVDVSHEDPEVKFNWYVDGVEVHNAKTKPREEQYNSTYRVVSVLTVLHQDWLNGKEYKCKVSNKALPAPIEKTISKAKGQPREPQVCTLPPSRDELTKNQVSLWCLVKGFYPSDIAVEWESNGQPENNYKTTPPVLDSDGSFFLYSKLTVDKSRWQQGNVFSCSVMHEALHNRYTQKSLSLSP
chain 3: DIVMTQSPLSLPVTPGEPASISCRSSQSLVHSNRNTYLHWYQQKPGQAPRLLIYKVSNRFSGVPDRFSGSGSGTDFTLKISRVEAEDVGVYYCGQGTQVPYTFGQGTKLEIKRTVAAPSVFIFPPSDEQLKSGTASVVCLLNNFYPREAKVQWKVDNALQSGNSQESVTEQDSKDSTYSLSSTLTLSKADYEKHKVYACEVTHQGLSSPVTKSFNRGEC
As for B9, in assay [2], the Kd was 63.1 nM.

B10: CE115HA000 V11L/D72A/L78I/D101Q with GGGSGGGS inserted between Kabat 99 and 100, one-arm antibody (antibody)
chain 1: QVQLVESGGGLVQPGRSLRLSCAASGFTFSNAWMHWVRQAPGKGLEWVAQIKAKSNNYATYYAESVKGRFTISRADSKNSIYLQMNSLKTEDTAVYYCRYVHYGAGGGSGGGSYYGVQAWGQGTTVTVSSASTKGPSVFPLAPSSKSTSGGTAALGCLVKDYFPEPVTVSWNSGALTSGVHTFPAVLQSSGLYSLSSVVTVPSSSLGTQTYICNVNHKPSNTKVDKKVEPKSCDKTHTCPPCPAPEAAGGPSVFLFPPKPKDTLMISRTPEVTCVVVDVSHEDPEVKFNWYVDGVEVHNAKTKPREEQYASTYRVVSVLTVLHQDWLNGKEYKCKVSNKALPAPIEKTISKAKGQPREPQVYTLPPSRCELTKNQVSLSCAVKGFYPSDIAVEWESNGQPENNYKTTPPVLDSDGSFFLVSKLTVDKSRWQQGNVFSCSVMHEALHNHYTQKSLSLSPDYKDDDDK
chain 2: B9 chain 2
chain 3: B9 chain 3
In the case of B10, in assay [2], the Kd was 41.3 nM and 37.5 nM.

B11: CE115HA000 V11L/D72A/L78I/D101Q without insertion, one-arm antibody (antibody, human IgG1, kappa, L234A L235A, N297A, name in Kabat numbering)
heavy: QVQLVESGGGLVQPGRSLRLSCAASGFTFSNAWMHWVRQAPGKGLEWVAQIKAKSNNYATYYAESVKGRFTISRADSKNSIYLQMNSLKTEDTAVYYCRYVHYGAYYGVQAWGQGTTVTVSSASTKGPSVFPLAPSSKSTSGGTAALGCLVKDYFPEPVTVSWNSGALTSGVHTFPAVLQSSGLYSLSSVVTVPSSSLGTQTYICNVNHKPSNTKVDKKVEPKSCDKTHTCPPCPAPEAAGGPSVFLFPPKPKDTLMISRTPEVTCVVVDVSHEDPEVKFNWYVDGVEVHNAKTKPREEQYASTYRVVSVLTVLHQDWLNGKEYKCKVSNKALPAPIEKTISKAKGQPREPQVYTLPPSRCELTKNQVSLSCAVKGFYPSDIAVEWESNGQPENNYKTTPPVLDSDGSFFLVSKLTVDKSRWQQGNVFSCSVMHEALHNHYTQKSLSLSPDYKDDDDK
chain: B9 chain 2
light: B9 chain 3
notes: one-arm antibody; 'No insertion' read as the altered H chain without linker; also called No insertion
In turn, B11 returned an equilibrium dissociation constant (Kd) in assay [2] of 6.96 nM.

B12: CE115HA000 V11L/D72A/L78I/D101Q with GGSGGGS inserted between Kabat 99 and 100, one-arm antibody (antibody)
chain 1: QVQLVESGGGLVQPGRSLRLSCAASGFTFSNAWMHWVRQAPGKGLEWVAQIKAKSNNYATYYAESVKGRFTISRADSKNSIYLQMNSLKTEDTAVYYCRYVHYGAGGSGGGSYYGVQAWGQGTTVTVSSASTKGPSVFPLAPSSKSTSGGTAALGCLVKDYFPEPVTVSWNSGALTSGVHTFPAVLQSSGLYSLSSVVTVPSSSLGTQTYICNVNHKPSNTKVDKKVEPKSCDKTHTCPPCPAPEAAGGPSVFLFPPKPKDTLMISRTPEVTCVVVDVSHEDPEVKFNWYVDGVEVHNAKTKPREEQYASTYRVVSVLTVLHQDWLNGKEYKCKVSNKALPAPIEKTISKAKGQPREPQVYTLPPSRCELTKNQVSLSCAVKGFYPSDIAVEWESNGQPENNYKTTPPVLDSDGSFFLVSKLTVDKSRWQQGNVFSCSVMHEALHNHYTQKSLSLSPDYKDDDDK
chain 2: B9 chain 2
chain 3: B9 chain 3
Turning to B12, the Kd in assay [2] was 43.5 nM and 34.3 nM.

B13: CE115HA000 V11L/D72A/L78I/D101Q with GGSGGS inserted between Kabat 99 and 100, one-arm antibody (antibody)
chain 1: QVQLVESGGGLVQPGRSLRLSCAASGFTFSNAWMHWVRQAPGKGLEWVAQIKAKSNNYATYYAESVKGRFTISRADSKNSIYLQMNSLKTEDTAVYYCRYVHYGAGGSGGSYYGVQAWGQGTTVTVSSASTKGPSVFPLAPSSKSTSGGTAALGCLVKDYFPEPVTVSWNSGALTSGVHTFPAVLQSSGLYSLSSVVTVPSSSLGTQTYICNVNHKPSNTKVDKKVEPKSCDKTHTCPPCPAPEAAGGPSVFLFPPKPKDTLMISRTPEVTCVVVDVSHEDPEVKFNWYVDGVEVHNAKTKPREEQYASTYRVVSVLTVLHQDWLNGKEYKCKVSNKALPAPIEKTISKAKGQPREPQVYTLPPSRCELTKNQVSLSCAVKGFYPSDIAVEWESNGQPENNYKTTPPVLDSDGSFFLVSKLTVDKSRWQQGNVFSCSVMHEALHNHYTQKSLSLSPDYKDDDDK
chain 2: B9 chain 2
chain 3: B9 chain 3
Consider B13, for which the Kd in assay [2] was 34.6 nM and 31.1 nM.

B14: CE115HA000 V11L/D72A/L78I/D101Q with GGSGGSGGS inserted between Kabat 99 and 100, one-arm antibody (antibody)
chain 1: QVQLVESGGGLVQPGRSLRLSCAASGFTFSNAWMHWVRQAPGKGLEWVAQIKAKSNNYATYYAESVKGRFTISRADSKNSIYLQMNSLKTEDTAVYYCRYVHYGAGGSGGSGGSYYGVQAWGQGTTVTVSSASTKGPSVFPLAPSSKSTSGGTAALGCLVKDYFPEPVTVSWNSGALTSGVHTFPAVLQSSGLYSLSSVVTVPSSSLGTQTYICNVNHKPSNTKVDKKVEPKSCDKTHTCPPCPAPEAAGGPSVFLFPPKPKDTLMISRTPEVTCVVVDVSHEDPEVKFNWYVDGVEVHNAKTKPREEQYASTYRVVSVLTVLHQDWLNGKEYKCKVSNKALPAPIEKTISKAKGQPREPQVYTLPPSRCELTKNQVSLSCAVKGFYPSDIAVEWESNGQPENNYKTTPPVLDSDGSFFLVSKLTVDKSRWQQGNVFSCSVMHEALHNHYTQKSLSLSPDYKDDDDK
chain 2: B9 chain 2
chain 3: B9 chain 3
For B14, the Kd in assay [2] was 43.9 nM and 35.4 nM.

B15: CE115HA000 one-arm antibody (antibody, human IgG1, kappa, L234A L235A, N297A)
heavy: B11 heavy with L11V, A75D, I81L, Q110D
chain: B9 chain 2
light: B9 chain 3
notes: one-arm antibody
B15: in assay [2], the Kd amounted to 110 nM.
